Assay results as given in the nanobody polyreactivity screen of Harvey et al. (2022).

Test: yeast display, Sf9 membrane polyspecificity reagent, FACS + sequencing; frameworks hold sequencing errors
Method in brief: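 Using colony PCR, genes from sorted yeast display clones were amplified, then sequenced on MiSeq at 2 × 250 and filtered by CDR length. The clones had been stained with 10% biotinylated, detergent-solubilized Sf9 membrane reagent for 1 hour at 4 °C and sorted by FACS into low and high (top ~1%) gates on anti-HA and streptavidin fluorescence. Polyreactivity labels come from the gate of origin.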

| Sequence | polyreactivity (PSR sort gate) |
| --- | --- |
| QVQLVESGGGLVQAGGSLRLSCAASGSTFRYYAMGWYRPAPGKERELVAVISTSGNTYYADSVKGRFTISRDNAKNTVYLQMNSLKPEDTAVYYCAARGVGGQISQEYDYWGQGTQVTVSS | low polyreactivity |
| QVQLVESGGGLVQAGGSLRLSCAASGGIFAQYAMGWYRQAPGKEREFVATISTSGGSTYYADSVKGRYTISRDNAKNTVYLQMNSLKPEDTAVYYCARYSYRGTNVRYDYWGQGTQVTVSS | high polyreactivity |
| QVQLVESGGGLVHAGGSLRLSCAASGFIFGINAMGWYRQAPGKERELVATITSGGGTNYADSVKGRFTISRDNAKNTVYLQMKSVKPEDTAVYYCADEDDYIYFYLSMDYWGQCTQVTVSS | low polyreactivity |
| QVQLVESGGGLVQAGGSLRLSCAASGSIFTYNAMGWYRQAPGKERELVAAITSSSGSSTYADSVKGRFTISRDNAKNTVYLQMNSLKPEDTAVYYCAAPILSFPSPYVQYDYWGQGTQVTVSS | low polyreactivity |
| QVQLVESGGGLVQAGGSLRLSCAASGFTFRDYAMGWYRQAPGKEREFIADITFSGDNTRYADSVKGRFTISRDNAKNTVYLQMNSLKREDTAVYYCNADYLVSWLQFDYWGQGTQVTVSS | low polyreactivity |
| QVQLVESGGGLVQAGVSLRLSCAASGGTFPKYTMGWYRQAPGKERELVAAITSRGTRTYYADSVKARFTISRDNAKNTVYLQMNSLKTEDTAVYYCAAYFDRHRYDYWGQGTQVTVSS | high polyreactivity |
| QVQLVESGGGLVQAGGSLRLSCAASGSIFLRNAMGWYRQAPGKERELVAAITWDSGDTYYADSVQGRFTISRDNAKNTVYLQMNSLKPEDTAVYYCNTLGLSSDWGQGTQVTVSS | low polyreactivity |
| QVQLVESGGGLVQAGGSLRLSCAASGFTFGVNAMGWYRQAPGKERELVAVITSGGNTYYADSVKGRFTISRDNAKNTVYLQMNSLKPEDTAVYYCAADLSDTSYATRYQGDYWGQGTQVTVSS | low polyreactivity |
| QVQLVESGGGLVQAGGSLRLSCAASGRTFNWNAMGWYRQAPGKERELVAAITSGGSTYNADSVKGLFTISRDNAKNTVYLQMNSLKPEDTAVYYCAGRINFYRSKYYYWGQGTQVTVSS | high polyreactivity |
| QVQLVESGGGLVQAGGSLRLSCAASGSTLGGYAMGWYRQAPGKERELVAAISGSRGSTYYADSVKGRFTISRDNAKNTVYLQMTSLKPEDTAVYYCAAGSYWVQYQYDYWGQGTQVTVSS | low polyreactivity |
| QVQLVESGGGLVQAGGSLGLSCAASGSTFQFYAMGWNRQAPGKERELVAAISWSSGSTYYADSVKGRFTISRDNAKNSVYLQMNSLKPEHTAVYYCNARYPWSYRYWDGGYWGQGTQVTVSS | low polyreactivity |
| QVQLVESGGGLVQAGGSLRLSCAASGSTFTLNAMGWYRQAPGKERELVAAITTSGGSTYYADSVKGRFTISRDNAKNTVYLQMNSLKPEDTAVYYCNADGPWREVERPFRKEGNYWGQGTQVTVSS | low polyreactivity |
| QVQLVESGGGLVQAGGSLRLSCAASGSTFGGNAMGWYRQAPGKERELVAAITIGGRTNYADSVKGRFTISRDNAKNTVYLQMNSLKPEDTAVYYCAKDRDQWQDYWGQGTQVTVSS | low polyreactivity |
| QVQLVESGGGLVQAGGSLRLSCAASGRIFYQYAMGWYRPAPGKERELVAAIRWSGGSTYYADSVKGRFTISRDNAKNTVYLQMNSLKQEDTAVYYCNARYPYWGAYYDYDYWGQGTQVTVSS | low polyreactivity |
| QVQLQESGGGLVQAGGSLRLSCAASGSNSILQSMGWYRQAPGKERELVAGINWGATTYYADSVKGRLTTSRDYAKNSVYLQMNSLKPEDTAVYFCAVPTYYTYPLLYWGQGTQVTVSS | low polyreactivity |
| QVQLVESGGGLVQAGGRLRLSCAASGSTNYRYAMRWYRQAPGKERELVATISRTGARTNYADSVKGRFTISRDNAKNTVYLQMNSLKPEDTAVYYCAASAPYIYYWGQGTQVTVSS | high polyreactivity |
| QVELVDSGGGLVQAGGILRLSCPASGSTIPTNVMGWSRQAPGKERECVAAITWSVGSTYYADSVKGRFTISRDNAKNTVYLQMNSLKPEDTAVYYCTADSQVLSAPDDYWGQGTQVTVSS | low polyreactivity |
| QVQLVESGGGLVQSGGSLRLTCAASGIIFPRYAMGWYRQAPGKERELVAAITRRGGRTYYADSVKGRFTISRDNAKNTVYLQMNSLKPEDTAVYYCNADFISTRPPKATDEDYWGQGTQVTVSS | high polyreactivity |
| QVQIVESGGGLVQAGGSLRLSCAASGFTIPPYTMGWYRQAPRKEREFVATITASGGSTYYADSVKGRFTISRDNAKNTVYLQMNSLNPEDTAVYYCNADYYSLYFFAWYRTNDFWGQGTQVTVSS | low polyreactivity |
| QVQLVESGGGLVQAGGSLRLSCAASGSIFLYNAMGWYIQAPGKERELVAAISKSGGSTYYADSVKGRFTISRDNAKNTVYLQMNSLKPEDTAVYYCAADFLPQSYNWYDYWGQGTEVTVSS | low polyreactivity |
| QGQLVESGGGLVQAGGSLRLSCAASGFIFYKNAMGWYRQAPGKARELVAAITWSGGSTYYADSVKGRFTISRDNAKNTVYLQMNSLKPEDTAVYYCAAGVTWISWVWYDYWGQGTQVTVSS | low polyreactivity |

| Sequence | polyreactivity (PSR sort gate) |
| --- | --- |
| QVQLVESGGGLVQAGGSLRLSCAASGSIFPRNTMGWYRQAPGKERELVAAMSSGASTYYADSVKGRFTISRDNAKNTVYLQMNSLKPEDTAVYYCAKRYQDTSPKDGENEYWGQGTQVTVSS | low polyreactivity |
| QVQHVESGGGLVQAGGSLRLSCAASGIISYKNVMGWYRQAPGKERELVAAISGRGGSTYYADSVKGRFTISRDNAKNTVYLQMNSLKPEDTAVYYCAKYPGISGYNYWGQGTQVTVSS | high polyreactivity |
| QVQLVESGGGLVHAGGSLRLSCAASGITFEVYGMGWYRQSPGKERELVAAINSDGNTNYADSVKGRFTISRDNAKNTVYLEMNSVKPEDTAVYYCATVVNAQISRGESAVTGYYYWGQGTQVTVSS | high polyreactivity |
| QVQLVESGGGLVQAGGSLRLSCAASGNTIHWNFMGWYRQATGKERELVATITFSGSSTYYADSVKGRFTISRDNAKNTVYLQMNSLKPEDTAVYYCAKDFLGDGTSIEYGGSEYDYWGQGTQVTVSS | low polyreactivity |
| QVQLVESGGGLVQAGGSLRLSCAASGRIFASNAMGWYRPAPGKERELVAAIDQGGGSTYYADSVKGRFTISRDNAKNTVYLQMNSLKPEDTAVYYCAADYITAYPRLYNYWGQGTQVTVSS | low polyreactivity |
| QVQLVESGGGLVQAGGSLRLSCAASGFTLYYYTMGWYRQAPGKERELVAAITSGGDTYYADSVKGRFTISRDNAKNTVYLQMNSLKPEDTAVYYCAAVDDDYSIVWYDYWGQGTQVTVSS | low polyreactivity |
| QVQLVESGGGLVQAGGSLRLSCAASGSTFWSYAMGWYRQAPGKERELVAAITSGGRTYYADSVKGRFTISRDNAKNTVYLQMNSLKPEDTAVYYCNAVVRHTYRRFDYWGQGTQVTVSS | high polyreactivity |
| QVQLVESGGGLVQAGGSLRLSCAASGSIYYWYASGWYIHAPGKERELVAAITSGGSTNYADSVKGRFTISRDNAKNTVYLQMNSLKPEDTAVYYCAASSVLTNHDYWGQGTQVTVSS | low polyreactivity |
| QVQLVESGGRLVQAGGSLRLSCAASGRTFDYYDMGWYRQAPGKERELVAAITWGGGSTYYADSVKGRFSISRDNAKNTVYLQMNSLKPEDTAVYYCNADHFGWPWRVRIHEDDYWGQGTQVTVSS | low polyreactivity |
| QDQHVESGGGLVQAGGSLRLICAASGINFDYYNMGWYRQAPGKERELVATISSGGTSTFYADSVKGRFTISRDNAKNTVYLQMNSLKPDDSAVYYCAKDRPGWVHRRPSGGFDYWGQGTQVTVSS | low polyreactivity |
| QVQLVESGGGLVQAGGSLRLSCAASGTTIETYASGWYRQAPGKERELVATITSGGSTYYAYSVKGRFTISRDTAKITVYLQMNSLKPEDTSVYYCAAGRYGGKHVWYYYWGQGTQVTVSS | high polyreactivity |
| QVQLVESGGGLVQAGGSLRLSCAASGSTFSINAMGWYRQAPGKERELVAAISSGGSTYYADSVKGRFTISRDNAKNTVYLQMNSLKPEDTAVYYCAVDPPWTYWSTYRYDYWGQGTQVTVSS | low polyreactivity |
| QVQLVESGGGLVQAGCSLRLSCAASGFIFATNTMGWYRHSPGKERELVAASSTYYAESVKGRFTISRDNAKNTVYLQMNSLKQEDTAVYYCNAYRDSYIGFVDWAGEYWGQGTQVTVSS | low polyreactivity |
| QVQLVESGGGLVQAGGSLRLSCAASGSTFSVNAMGWYRQAPGKEREFVARITWRGGSTYYADSVKRRFTISRDNAKNTVYLQMNSLKPEDTAVYYCAATLRYWWRSSYEDYYWGQGTQVTVSS | low polyreactivity |
| QVQLQESGGGLVQAGGSLRLSCAASGTISQEDWMGWYRQAPGKEREFVAAIGLGSNTNYADSLKGRFTISRDNAKKTVYLQMNSLKPEDTAVYYCAVSVWQYSDHVYRGQGTQVTVSS | low polyreactivity |
| QVQLVESGGGLVQAGGSLRLSCSASGSIFRFNAKGWYRQAPGKERELVASSRWDTASTYYADSVKGRFTISRDNAKNTVYLQMNSLKPEDTAVYYCNAGRPRFYRSRWYYYGYGYWGQGTQVTVSS | high polyreactivity |
| QVQLVESGGGLVQAGGSLRLSCAASGSTFYKYAMGWYRQAPGKERELVASITWSGTSTYYADSVKGRFTISRDNAKNTVYLQMNSLKPEDTAVYYCNAGLEYYYWGYTWEFDYWGQGTQVTVSS | low polyreactivity |
| QVQLVESGGRLVQAGGSLRLSCAASVITFLGNAMGWYRQAPGKERELVAAISASGGRTYYADSVKGRFTISRDNAKNTVYLLMNSLKPEDTAVYYCAAASKPWYYYWGQGTQVTVSS | high polyreactivity |
| QVQLVESGGGLVQAGGSLRLSCAASGSTYAFYAMGWYRQAPGKERELVAAITSGGSTKYADSVKGRFTISRDNAKNTVYLQMNSLKPEDTAFYYCAARSRWSKLFRYDYWGQGTQVTVSS | high polyreactivity |
| QVQLVESGGGLVQAGGSLRLSCAASGSTFSRNAMGWYRQAPGKERELVATISWRGGSTYYADSVKGRFTISRDNAKNTVYLQMNSLKPEDTAVYYCATLHRPAYYYWGQGTQVTVSS | high polyreactivity |
